For 2 substances, percentage of transfected HEK-293 T cells with nuclear staining of UL56 by confocal microscopy, in the presence of UL51 (UL56 alone exclusively cytoplasmic) (% of cells with nuclear staining), percentage of transfected HEK-293 T cells with nuclear staining of UL56 by confocal microscopy, in the presence of UL89 (UL56 alone exclusively cytoplasmic) (% of cells with nuclear staining) and percentage of transfected HEK-293 T cells with nuclear staining of UL89 by confocal microscopy, in the presence of UL56 (UL89 alone exclusively cytoplasmic) (% of cells with nuclear staining) results are on record in paper PMC3547700.

The test concerns the target V5-UL56 (HCMV strain AD169), plasmid-expressed (human cytomegalovirus strain AD169).

For “FLAG-UL51 (HCMV strain AD169), plasmid-expressed (natural protein)”, the percentage of transfected HEK-293 T cells with nuclear staining of UL56 by confocal microscopy, in the presence of UL51 (UL56 alone exclusively cytoplasmic) (% of cells with nuclear staining) came out at 62.

As for “MYC-UL89 (HCMV strain AD169), plasmid-expressed (natural protein)”, the percentage of transfected HEK-293 T cells with nuclear staining of UL56 by confocal microscopy, in the presence of UL89 (UL56 alone exclusively cytoplasmic) (% of cells with nuclear staining) is 37 and the percentage of transfected HEK-293 T cells with nuclear staining of UL89 by confocal microscopy, in the presence of UL56 (UL89 alone exclusively cytoplasmic) (% of cells with nuclear staining) was determined as 26.
